The source of these data is patent publication US20210395361A1 (Alector, published 2021).

One assay concerns the target T1, human Siglec-5 (human, UniProt O15389 17-551).
T1 construct: also called CHO-S5; CHO-S hSiglec-5
T1 sequence: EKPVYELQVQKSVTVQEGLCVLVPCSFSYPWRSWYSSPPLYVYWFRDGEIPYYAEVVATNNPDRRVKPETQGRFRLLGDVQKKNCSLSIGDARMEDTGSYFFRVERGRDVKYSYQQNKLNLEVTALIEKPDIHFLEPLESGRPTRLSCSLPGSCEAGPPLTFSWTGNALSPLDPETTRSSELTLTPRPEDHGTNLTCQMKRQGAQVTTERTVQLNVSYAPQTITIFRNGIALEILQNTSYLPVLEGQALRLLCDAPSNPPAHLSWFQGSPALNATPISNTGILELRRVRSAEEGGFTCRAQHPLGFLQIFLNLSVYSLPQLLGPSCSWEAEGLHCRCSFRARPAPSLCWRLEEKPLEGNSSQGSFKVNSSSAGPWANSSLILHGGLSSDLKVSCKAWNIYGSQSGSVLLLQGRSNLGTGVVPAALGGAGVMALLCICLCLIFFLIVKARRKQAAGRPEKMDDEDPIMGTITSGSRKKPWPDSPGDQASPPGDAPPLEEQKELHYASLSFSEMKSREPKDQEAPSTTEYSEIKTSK
The assay is described as follows: FACS titration, CHO-S hSiglec-5 cells, anti-human IgG secondary; y-axis Fold over isotype, x-axis Antibody (nM), log scale. On the procedure: (§1) CHO cells were incubated with increasing concentrations of anti-Siglec-5 antibody, as indicated on the x-axis of each plot. The binding of anti-Siglec-5 antibodies to the surface of CHO cells was then measured by FACS. The y-axis provides the binding of each indicated anti-Siglec-5 antibody to the surface of CHO cells relative to hIgG1 isotype control antibodies. S5-174-H2L1 refers to antibody S5-174-H3; S5-174-H3L1 refers to antibody S5-174-H5; S5-174-H3L2 refers to antibody S5-174-H6; S5-174-H4L1 refers to antibody S5-174-H7; S5-174-H4L2 refers to antibody S5-174-H8; S5-G03-H2L1 refers to antibody S5-G-03-H4; S5-G03-H2L2 refers to antibody S5-G-03-H5; S5-G03-H3L1 refers to antibody S5-G-03-H7; S5-G03-H3L2 refers to antibody S5-G-03-H8; and S5-G03-H3L3 refers to antibody S5-G-03-H9.
(§2) Various anti-Siglec-5 antibodies of the present disclosure were evaluated for their ability to bind to CHO cells which were stably transfected with human Siglec-5 (CHO-S5) or human Siglec-14 (CHO-S14). Cells were incubated with various dilutions of anti-Siglec-5 antibodies for 30 minutes on ice in the dark, followed by a 30-minute incubation with a fluorescently conjugated anti-human IgG secondary antibody. Cells were then washed twice in FACS buffer (PBS+2% FBS, 2 mM EDTA), and flow cytometry was performed on a BD FACS Canto. Data were analyzed using FlowJo software (Ashland, Oreg.). In FIG. 9, hIgG1 refers to isotype control antibodies; S5-174-H2L1 refers to antibody S5-174-H3; S5-174-H3L1 refers to antibody S5-174-H5; S5-174-H3L2 refers to antibody S5-174-H6; S5-174-H4L1 refers to antibody S5-174-H7; S5-174-H4L2 refers to antibody S5-174-H8; S5-G03-H2L1 refers to antibody S5-G-03-H4; S5-G03-H2L2 refers to antibody S5-G-03-H5; S5-G03-H3L1 refers to antibody S5-G-03-H7; S5-G03-H3L2 refers to antibody S5-G-03-H8; and S5-G03-H3L3 refers to antibody S5-G-03-H9.

The target of assay [1] is T2, human Siglec-14 (human, UniProt Q08ET2 17-396).
T2 construct: also called CHO-S14; CHO-S hSiglec-14
T2 sequence: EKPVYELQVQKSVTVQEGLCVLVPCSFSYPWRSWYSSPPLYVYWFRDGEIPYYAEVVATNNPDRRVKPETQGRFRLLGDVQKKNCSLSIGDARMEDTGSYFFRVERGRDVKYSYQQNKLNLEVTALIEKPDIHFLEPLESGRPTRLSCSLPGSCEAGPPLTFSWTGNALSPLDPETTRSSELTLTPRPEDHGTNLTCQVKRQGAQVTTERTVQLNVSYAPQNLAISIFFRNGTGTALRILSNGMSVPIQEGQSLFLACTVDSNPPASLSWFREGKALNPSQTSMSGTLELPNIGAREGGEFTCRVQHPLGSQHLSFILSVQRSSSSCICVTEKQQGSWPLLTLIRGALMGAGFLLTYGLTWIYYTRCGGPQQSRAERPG
The assay is described as follows: FACS titration, CHO-S hSiglec-14 cells, anti-human IgG secondary; y-axis Fold over isotype, x-axis Antibody (nM), log scale; the same flat line on CHO-S Parental cells. As to the method:
as §1, §2

For assay [2], the target named is T3, Histidine-tagged human Siglec-5 (NovoProtein) (human, UniProt O15389 17-434, limits assumed).
T3 construct: Bought soluble protein; also called His-tagged human Siglec-5; not shown: histidine tag
T3 sequence: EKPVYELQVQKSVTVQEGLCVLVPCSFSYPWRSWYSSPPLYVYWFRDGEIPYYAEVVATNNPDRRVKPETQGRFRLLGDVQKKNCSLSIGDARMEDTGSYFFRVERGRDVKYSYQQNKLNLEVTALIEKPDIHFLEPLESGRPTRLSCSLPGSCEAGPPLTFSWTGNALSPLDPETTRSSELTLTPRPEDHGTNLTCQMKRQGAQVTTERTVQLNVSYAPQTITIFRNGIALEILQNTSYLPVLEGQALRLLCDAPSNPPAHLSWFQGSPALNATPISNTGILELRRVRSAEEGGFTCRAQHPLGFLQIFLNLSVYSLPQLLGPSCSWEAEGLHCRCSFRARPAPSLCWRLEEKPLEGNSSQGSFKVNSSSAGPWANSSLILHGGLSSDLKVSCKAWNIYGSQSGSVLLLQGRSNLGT
The assay is described as follows: array SPR, antibody immobilized, His-tagged human Siglec-5 (0-500 nM) in solution; apparent affinity. As to the method: The apparent binding affinities of the anti-Siglec-5 antibodies were measured by array surface plasmon resonance (SPR), according to standard techniques (Abdiche, et al. (2016) MAbs 8:264-277). Briefly, anti-Siglec-5 antibodies were immobilized on a HC 30M chip at four different densities, at antibody concentration of 10 μg/mL, 2.5 μg/mL, 0.63 μg/mL, and 0.16 μg/mL. Varying concentrations (0-500 nM) of Histidine-tagged human Siglec-5 or cynomolgus Siglec-5 (NovoProtein) were then bound to the captured anti-Siglec-5 surface (5 min injection time, 15 min dissociation time) in HBS-EP⁺/1 mg/mL BSA running buffer. Kinetic analysis was performed using Carterra software to extract association and dissociation rate constants (kₐ and kd, respectively) for each antibody. Apparent affinity constants (KD) were calculated from the ratio kd/kₐ. None of the anti-Siglec-5 antibodies bound to cynomolgus Siglec-5 protein.

Assay [3] has as its target T2, human Siglec-14. Briefly: FACS, CHO cells stably transfected with human Siglec-14 (CHO-S14), fluorescent secondary antibody; y-axis Binding (Fold over background); antibody concentration not shown. As to the method:
The anti-Siglec-5 antibodies were evaluated for their ability to bind to CHO cells which were stably transfected with human Siglec-5 (CHO-S5) or human Siglec-14 (CHO-S14). The anti-Siglec-5 antibodies were also evaluated for their ability to bind to primary human neutrophils. Cells were incubated with various dilutions of the anti-Siglec-5 antibodies for 30 minutes on ice in the dark, followed by a 30-minute incubation with a fluorescently-conjugated anti-human IgG secondary antibody. Cells were washed twice in FACS buffer (PBS+2% FBS, 2 mM EDTA), and flow cytometry was performed on a BD FACS Canto. Data were analyzed using FlowJo software (Ashland, Oreg.). In the figures, “hIgG1” and “mIgG1” refer to isotype control antibodies, and “S5/14 1A5” refers to a commercially available antibody that binds both Siglec-5 and Siglec-14 (BioLegend, clone 1A5).

B1: S5-G-03-H7 (antibody, V domains shown)
VH: EVQLLQSGGGLVQPGGSLRLSCAASGFTFSTYGMSWVRQAPGKGLELVATINSNGDNTYYADSVKGRFTISRDNSKNTLYLQMNSLRAEDTAVYYCARAWPSITTVFAPYTLDYWGQGTLVTVSS
VL: DIQMTQSPSSLSASVGDRVTITCRASSSVSSSFLHWYQQKPGKAPKLLIYSTSNLASGVPSRFSGSGSGTDFTLTISSLQPEDFATYYCQQYSGYPLTFGQGTKLEIK
notes: Humanized variant of S5-G-03; also called S5-G03-H3L1
For B1, the binding result in the assay with human Siglec-5 was “binds”; in the assay with human Siglec-14 [1], “no binding (tested: last point between 1 and 10 nM)”.

B2: S5-G-03-H9 (antibody, V domains shown)
VH: EVQLLQSGGGLVQPGGSLRLSCAASGFTFSTYGMSWVRQAPGKGLELVATINSNGDNTYYADSVKGRFTISRDNSKNTLYLQMNSLRAEDTAVYYCARAWPSITTVFAPYTLDYWGQGTLVTVSS
VL: DIQLTQSPSSLSASVGDRVTMTCRASSSVSSSFLHWYQQKPGKAPKLWIYSTSNLASGVPSRFSGSGSGTDYTLTISSVQPEDFATYYCQQYSGYPLTFGQGTKLEIK
notes: Humanized variant of S5-G-03; also called S5-G03-H3L3
With B2, the binding result with human Siglec-5 is “binds”; in the assay with human Siglec-14 [1], “no binding (tested: last point between 1 and 10 nM)”.

B3: S5-G-07 (antibody, V domains shown)
VH: QAYLQQSGAELARPGASVKMSCKASGYTFSSYTMYWVKQRPGQGLEWIGYINPSSGYTEYNQKFKDKATLTADKSSSTAYMQLISLTSEDSAVYYCARSDSKGDYWGQGTTLTVSS
VL: DVVMTQSPSSLSASLGERVSLTCRASQDIGNSLNWLQQEPDGTIKRLISATSSLDSGVPKRFSGSRSGSDYSLTISSLESEDFVDYYCLQYASSPLTFGAGTKLELK
notes: Mouse-derived variable domains; expressed in mammalian cells as full antibody; hIgG1 isotype control; also called SG-5-07
Turning to B3, in assay [2], the Kd was not above 0.42 nM, the koff was not above 1e-05 s⁻¹ and the association rate constant (kon) was determined as 24000 M⁻¹ s⁻¹. The binding result with human Siglec-14 [3] is “no binding”.

B4: S5-172 (antibody, V domains shown)
VH: QAYLQQSGPELVKPGASVKVSCKASGYSLTDYNMYWVKQSHGKSLEWIGYIDSYNGGTRYNQKFKGKATLTVDKSSSTAFMHLNSLTSEDSAVYYCAREGFGYDDREWFAYWGQGTLVTVSA
VL: DIVLTQTPLSLAVSVGEKVTMNCKSSQSLLYSTNQMTFLAWYQQKPGQSPKLLIYWASTRESGVPDRFTGSGSGTDFTLTISSVKAEDLAIYYCQQFYTYPFTFGSGTKLEIR
notes: Mouse-derived variable domains; expressed in mammalian cells as full antibody; hIgG1 isotype control
B4: in assay [2], the Kd amounted to 1.5 nM, the koff was determined as 0.00053 s⁻¹ and the kon is 350000 M⁻¹ s⁻¹. In the assay with human Siglec-14 [3], the binding result is recorded as “no binding”.

B5: S5-190 (antibody, V domains shown)
VH: QAYLQQSGPELVKPGASVKVSCKASGYSLTDYNMYWVKQSHGKSLEWIGYIDSYNGGTRYNQKFKGKATLTVDKSSSTAFMHLNSLTSEDSAVYYCAREGFGYDDREWFAYWGQGTLVTVSA
VL: DIQMTQTPSSLAVSVGEKVTLSCKSSQSLLYSTNQMNFLAWYQQKPGQSPKLLIYWASTRESGVPDRFAGSGSGTDFTLTISSVKAEDLAVYYCQQFYSYPFTFGSGTELEIK
notes: Mouse-derived variable domains; same VH entry as S5-172; expressed in mammalian cells as full antibody; hIgG1 isotype control
As to B5, in assay [2], the Kd worked out at 0.85 nM, the koff amounted to 0.00046 s⁻¹ and the kon came to 540000 M⁻¹ s⁻¹. The binding result with human Siglec-14 [3] is on record as “no binding”.

B6: S5-174 (antibody, V domains shown)
VH: QAYLQQSGAELVKPGTSVKLSCKASGYTFTNYWMHWVKQRPGQGLEWVGEIDPSDGYVTYNQNFKGKATLTVDRSSSTAYMQLSSLTSEDSAVYYCAGVYYGNSIYYAMDYWGQGTSVTVSS
VL: DIQMTQTRNFMSTSVGDRVNITCKATQDVGTAVAWYQVKPGQSPKLLIYWTSTRHTGVPDRFTGSGSGTDFTLTIKNVQSEDLADYFCQQYRSYPFTFGSGTKLEIK
notes: as for B4
For the molecule B6, in assay [2], the Kd was found to be 1.7 nM, the koff was found to be 0.00043 s⁻¹ and the kon came out at 250000 M⁻¹ s⁻¹. Further, in the assay with human Siglec-14 [3], the binding result is “no binding”.

B7: S5-175 (antibody, V domains shown)
VH: QAYLQQSGAVLARPGASVRMSCKASGYSFTSYYMHWVKQRPGQGLEWIGAIYPGNSDTSYNQKFKGKAKLTAVTSASTAYMEVSSLTNEDSAVYYCTPLVRPRPYGMDYWGQGTSVTVSS
VL: DVVLTQSTSSLSASLGDRVTISCRASQDISNYLNWYQQKPDGTVKLLIYYTSRLHSGVPSRFSGSGSGTDYSLTISNLEQEDIATYFCQQGNTLPWTFGGGTKLEIK
notes: as for B4
On to B7, for which, in assay [2], the Kd was found to be 15 nM, the koff was 0.00045 s⁻¹ and the on-rate (kon) amounted to 29000 M⁻¹ s⁻¹. Besides, the binding result with human Siglec-14 [3] is “no binding”.

B8: S5-G-10 (antibody, V domains shown)
VH: QAYLQQSGAELVKPGASVKLSCKASGYIFTEYTIHWVKQRSGQGLEWIGWFYPGSGSIKYNEKFKDKATLTADKSSSTVYMELSRLTSEDSAVYFCATHERAAQAAWSAYWGQGTLVTVSA
VL: DVQMNQSPASLSASVGETVTITCRASGNIHNYLAWYQQKQGKSPQLLVYNAKTLTDGVPSRFSGSGSGTQYSLKINTLQPEDFGSYYCQHFWSTPYTFGGGTKLEMK
notes: as for B4
For B8, in assay [2], the Kd came to 79 nM, the koff turned out to be 0.00068 s⁻¹ and the on-rate (kon) was 8600 M⁻¹ s⁻¹. In addition, the binding result with human Siglec-14 [3] is reported as “no binding”.
